Legend:
Settings in all cases: protein: recombinant; tags: Trx-His6 removed by 3C protease; label: 5' Cy3
RecQ4 427-1208 K1048A = molecular target: T1, RecQ4 427-1208 K1048A (Homo sapiens, UniProt O94761 427-1208, K1048A); experiment: fluorescence polarization; WT-like, low nM apparent Kd; 20 mM HEPES pH 8.0, 10 mM NaCl, 5% glycerol, 1 mM MgCl2, 0.5 mM TCEP, 0.5 nM Cy3-ssDNA; temperature not stated
T1 sequence: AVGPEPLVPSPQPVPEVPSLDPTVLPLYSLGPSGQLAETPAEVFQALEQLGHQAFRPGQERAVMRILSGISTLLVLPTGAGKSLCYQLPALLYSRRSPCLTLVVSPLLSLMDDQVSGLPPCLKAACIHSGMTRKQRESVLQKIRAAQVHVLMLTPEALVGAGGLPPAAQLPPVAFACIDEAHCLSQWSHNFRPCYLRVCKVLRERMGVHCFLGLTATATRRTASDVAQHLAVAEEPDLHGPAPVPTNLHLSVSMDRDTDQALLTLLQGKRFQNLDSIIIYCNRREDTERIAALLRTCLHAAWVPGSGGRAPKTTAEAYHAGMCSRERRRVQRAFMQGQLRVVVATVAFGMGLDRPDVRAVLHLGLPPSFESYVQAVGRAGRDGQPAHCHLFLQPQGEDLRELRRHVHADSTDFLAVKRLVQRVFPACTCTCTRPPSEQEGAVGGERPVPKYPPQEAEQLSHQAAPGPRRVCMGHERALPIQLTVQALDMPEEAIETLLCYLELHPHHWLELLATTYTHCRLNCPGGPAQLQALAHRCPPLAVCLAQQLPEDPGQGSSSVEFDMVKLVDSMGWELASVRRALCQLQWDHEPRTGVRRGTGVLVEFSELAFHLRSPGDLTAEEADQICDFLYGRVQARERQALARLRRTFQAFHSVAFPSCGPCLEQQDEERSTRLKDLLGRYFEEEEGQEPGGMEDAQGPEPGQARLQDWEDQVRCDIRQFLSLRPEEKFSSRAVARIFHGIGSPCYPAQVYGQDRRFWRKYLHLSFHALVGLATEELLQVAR

[1] = molecular target: T2, RecQ4 427-1208 R894A/R895A (Homo sapiens, UniProt O94761 427-1208, R894A;R895A); experiment: as above
T2 sequence: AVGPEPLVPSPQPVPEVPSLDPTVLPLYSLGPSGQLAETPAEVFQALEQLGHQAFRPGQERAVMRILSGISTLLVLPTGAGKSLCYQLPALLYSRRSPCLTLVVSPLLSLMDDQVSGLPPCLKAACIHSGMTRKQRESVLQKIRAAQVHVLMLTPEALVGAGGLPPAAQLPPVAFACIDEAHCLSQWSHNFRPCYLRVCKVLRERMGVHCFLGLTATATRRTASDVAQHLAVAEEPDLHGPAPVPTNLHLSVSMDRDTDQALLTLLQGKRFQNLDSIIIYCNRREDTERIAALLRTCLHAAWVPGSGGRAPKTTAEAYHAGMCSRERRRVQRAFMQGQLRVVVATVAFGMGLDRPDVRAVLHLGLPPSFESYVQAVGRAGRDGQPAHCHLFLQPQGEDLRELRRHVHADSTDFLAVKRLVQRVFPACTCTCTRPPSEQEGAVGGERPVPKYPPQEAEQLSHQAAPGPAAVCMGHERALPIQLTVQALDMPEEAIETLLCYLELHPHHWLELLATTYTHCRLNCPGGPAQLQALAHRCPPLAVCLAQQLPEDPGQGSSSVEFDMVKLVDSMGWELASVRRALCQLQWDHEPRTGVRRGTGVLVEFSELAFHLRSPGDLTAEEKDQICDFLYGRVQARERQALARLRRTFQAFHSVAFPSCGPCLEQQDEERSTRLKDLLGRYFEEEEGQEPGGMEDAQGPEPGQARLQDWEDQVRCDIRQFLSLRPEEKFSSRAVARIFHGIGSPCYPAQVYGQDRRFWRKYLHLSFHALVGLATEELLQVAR

RecQ4 427-1208 R618L = molecular target: T3, RecQ4 427-1208 R618L (Homo sapiens, UniProt O94761 427-1208, R618L); experiment: fluorescence polarization; WT-like affinity; figure values not assignable from text layer; 20 mM HEPES pH 8.0, 10 mM NaCl, 5% glycerol, 1 mM MgCl2, 0.5 mM TCEP, 0.5 nM Cy3-ssDNA; temperature not stated
T3 sequence: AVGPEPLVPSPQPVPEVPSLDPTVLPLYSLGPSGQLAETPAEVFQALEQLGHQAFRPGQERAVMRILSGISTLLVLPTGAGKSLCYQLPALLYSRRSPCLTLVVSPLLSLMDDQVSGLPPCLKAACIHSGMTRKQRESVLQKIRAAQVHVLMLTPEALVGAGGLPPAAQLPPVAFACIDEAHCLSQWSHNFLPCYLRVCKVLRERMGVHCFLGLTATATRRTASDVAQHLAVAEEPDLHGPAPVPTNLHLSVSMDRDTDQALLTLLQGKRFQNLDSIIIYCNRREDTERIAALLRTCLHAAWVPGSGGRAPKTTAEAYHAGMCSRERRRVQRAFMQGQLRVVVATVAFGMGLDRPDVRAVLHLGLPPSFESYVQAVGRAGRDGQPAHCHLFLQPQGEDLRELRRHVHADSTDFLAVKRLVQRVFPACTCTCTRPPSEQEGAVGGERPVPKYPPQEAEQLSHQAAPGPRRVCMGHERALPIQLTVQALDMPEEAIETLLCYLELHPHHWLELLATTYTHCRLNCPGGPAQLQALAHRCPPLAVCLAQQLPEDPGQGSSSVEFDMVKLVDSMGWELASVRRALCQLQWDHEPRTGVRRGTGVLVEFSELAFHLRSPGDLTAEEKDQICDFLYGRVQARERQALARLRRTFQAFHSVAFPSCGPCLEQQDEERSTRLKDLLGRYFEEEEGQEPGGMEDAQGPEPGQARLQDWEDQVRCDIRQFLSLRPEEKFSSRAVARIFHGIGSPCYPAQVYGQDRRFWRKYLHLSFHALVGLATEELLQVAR

Measured: binding result

B1: T3-Cy3 (ssDNA)
DNA: CCATTCCACCCTCTATTTTTTTTTTTTTTT
binds: all assays above

Reference: article PMC5490261, “The structural and functional characterization of human RecQ4 reveals insights into its helicase mechanism”
